We go through five molecules from publication PMC7878818 (2021).

In general, Kd refers to the constant that tells how readily two partners part at equilibrium.

Holding throughout (assay): ITC
The target in assay [1] is Spindlin1/C11orf84 complex (human, UniProt Q9Y657 50-262; Q9BUA3 1-381).
Assay [2] concerns the target Spindlin1 W72A/C11orf84 complex (human, UniProt Q9Y657 50-262; Q9BUA3 1-381, W72A).
For assay [3], the target named is Spindlin1 Y98A/C11orf84 complex (human, UniProt Q9Y657 50-262; Q9BUA3 1-381, Y98A).
The target of assay [4] is Spindlin1 W62A/C11orf84 complex (human, UniProt Q9Y657 50-262; Q9BUA3 1-381, W62A).
Assay [5] deals with Spindlin1 W62A/W72A/C11orf84 complex (human, UniProt Q9Y657 50-262; Q9BUA3 1-381, W62A | W72A).
In assay [6] the target is Spindlin1 F141A/C11orf84 complex (human, UniProt Q9Y657 50-262; Q9BUA3 1-381, F141A).
Assay [7] concerns the target Spindlin1 Y91A/C11orf84 complex (human, UniProt Q9Y657 50-262; Q9BUA3 1-381, Y91A).
The target of assay [8] is Spindlin1 D173A/C11orf84 complex (human, UniProt Q9Y657 50-262; Q9BUA3 1-381, D173A).

Ends that are not written are not given here. Me3 = trimethyl group on lysine (trimethyl-lysine); Me2 = dimethyl group on lysine (dimethyl-lysine)

Spindlin1/C11orf84 complex, sequence (Q9Y657 50-262, chain 1 of 2): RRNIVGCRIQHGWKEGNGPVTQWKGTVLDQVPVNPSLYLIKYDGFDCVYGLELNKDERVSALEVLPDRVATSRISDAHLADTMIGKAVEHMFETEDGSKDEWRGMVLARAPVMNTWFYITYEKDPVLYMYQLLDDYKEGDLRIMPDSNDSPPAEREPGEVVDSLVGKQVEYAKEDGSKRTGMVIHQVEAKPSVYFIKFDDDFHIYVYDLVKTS
Spindlin1/C11orf84 complex, sequence (Q9BUA3 219-305, chain 2 of 2): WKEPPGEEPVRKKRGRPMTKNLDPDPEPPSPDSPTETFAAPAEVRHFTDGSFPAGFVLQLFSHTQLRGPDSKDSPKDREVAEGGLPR
Spindlin1 F141A/C11orf84 complex, sequence (Q9Y657 50-262 F141A, chain 1 of 2): as the sequence (Q9Y657 50-262, chain 1 of 2) above, with F92A counted along it
Spindlin1 F141A/C11orf84 complex, sequence (Q9BUA3 whole entry, chain 2 of 2): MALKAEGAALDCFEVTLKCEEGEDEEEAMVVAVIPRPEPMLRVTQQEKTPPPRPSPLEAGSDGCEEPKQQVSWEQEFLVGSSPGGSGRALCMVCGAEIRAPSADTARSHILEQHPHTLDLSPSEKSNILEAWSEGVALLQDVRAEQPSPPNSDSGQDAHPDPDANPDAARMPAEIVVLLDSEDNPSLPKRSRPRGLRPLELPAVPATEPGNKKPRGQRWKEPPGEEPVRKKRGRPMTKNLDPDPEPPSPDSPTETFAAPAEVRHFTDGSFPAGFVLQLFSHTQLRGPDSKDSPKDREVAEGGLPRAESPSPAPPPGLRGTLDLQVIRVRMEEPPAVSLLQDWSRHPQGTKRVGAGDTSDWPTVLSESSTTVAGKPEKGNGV
Spindlin1 W72A/C11orf84 complex, sequence (Q9Y657 50-262 W72A, chain 1 of 2): as the sequence (Q9Y657 50-262, chain 1 of 2) above, with W23A counted along it
Spindlin1 W72A/C11orf84 complex, sequence (Q9BUA3 whole entry, chain 2 of 2): as the sequence (Q9BUA3 whole entry, chain 2 of 2) above
Spindlin1 W62A/W72A/C11orf84 complex, sequence (Q9Y657 50-262 W62A/W72A, chain 1 of 2): as the sequence (Q9Y657 50-262, chain 1 of 2) above, with W13A, W23A counted along it
Spindlin1 W62A/W72A/C11orf84 complex, sequence (Q9BUA3 whole entry, chain 2 of 2): as the sequence (Q9BUA3 whole entry, chain 2 of 2) above
Spindlin1 Y91A/C11orf84 complex, sequence (Q9Y657 50-262 Y91A, chain 1 of 2): as the sequence (Q9Y657 50-262, chain 1 of 2) above, with Y42A counted along it
Spindlin1 Y91A/C11orf84 complex, sequence (Q9BUA3 whole entry, chain 2 of 2): as the sequence (Q9BUA3 whole entry, chain 2 of 2) above
Spindlin1 Y98A/C11orf84 complex, sequence (Q9Y657 50-262 Y98A, chain 1 of 2): as the sequence (Q9Y657 50-262, chain 1 of 2) above, with Y49A counted along it
Spindlin1 Y98A/C11orf84 complex, sequence (Q9BUA3 whole entry, chain 2 of 2): as the sequence (Q9BUA3 whole entry, chain 2 of 2) above
Spindlin1 W62A/C11orf84 complex, sequence (Q9Y657 50-262 W62A, chain 1 of 2): as the sequence (Q9Y657 50-262, chain 1 of 2) above, with W13A counted along it
Spindlin1 W62A/C11orf84 complex, sequence (Q9BUA3 whole entry, chain 2 of 2): as the sequence (Q9BUA3 whole entry, chain 2 of 2) above
Spindlin1 D173A/C11orf84 complex, sequence (Q9Y657 50-262 D173A, chain 1 of 2): as the sequence (Q9Y657 50-262, chain 1 of 2) above, with D124A counted along it
Spindlin1 D173A/C11orf84 complex, sequence (Q9BUA3 219-305, chain 2 of 2): as the sequence (Q9BUA3 219-305, chain 2 of 2) above

Consider ARTK(Me3)QTAR(asymmetric Me2)KSTG [H3K4me3R8me2a peptide], for which the Kd in assay [1] worked out at 82 nM.
On the same count and under the same terms, under ARTK(Me3)QTARKSTG [H3K4me3 peptide] stands 213 nM.
Same read-out and setting: under ARTK(Me3)QTARK(Me2)STG [H3K4me3K9me2 peptide] stands 42 nM; under ARTKQTARKSTG (K9me3) [H3K9me3 peptide], 2880 nM.
With ARTK(Me3)QTARK(Me3)STG [H3K4me3K9me3 peptide], the Kd turned out to be 77 nM in assay [2]; 80 nM in assay [3]; 71 nM in assay [4]; 199 nM in assay [5]; 869 nM in assay [6]; 59 nM in assay [7]. The molecule also registered a Kd in assay [8] of 57 nM.
